Target: wild type eIF6 (eIF6^WT), purified (UniProt O55135 1-245)
Assay: SPR

Kd: 1470 nM
B1: Nsun2, purified (enzyme)
chain: MGRRARGRRFQQPPQPEGEEDASDGGRKRGQAGWEGGYPEIVKENKLFEHYYQELKIVPEGEWDQFMESLREPLPATLRITGYKSHAKEILHCLKNKYFKELEDLEVDGQKVEVPQPLSWYPEELAWHTNLSRKILRKSPLLAKFHQFLVSETESGNISRQEAVSMIPPLLLNVEPHHKILDMCAAPGSKTTQLIEMLHADMSVPFPEGFVIANDVDNKRCYLLVHQAKRLSSPCIMVVNHDASSIPRLTVDVDGRKEILFYDRILCDVPCSGDGTMRKNIDVWKKWTTLNSLQLHGLQLRIATRGAEQLAEGGRMVYSTCSLNPVEDEAVIAALLEKSEGALELADVSAELPGLKWMPGVSQWKVMTRDGQWFADWHEVPQGRHTQIRPTMFPPTDLEKLQAMHLERCLRILPHHQNTGGFFVAVLVKKAPMPWNKRQPKVQNKSAEAREPRVSSHVAATEGNPSDQSELESQMITGAGDSETAHNTENTESNEKKDGVCGPPPSKKMKLFGFKEDPFVFIPEDDPLFPPIEKFYALDPSFPRMNLLTRTTEGKKRQLYMVSKELRNVLLNNSEKMKVINTGIKVWCRNNSGEEFDCAFRLAQEGIYTLYPFINSRIITVSMEDVKTLLTQENPFFRKLSSEAYSQVKDLAKGSVVLKYEPDSANPDTLQCPIVLCGWRGKASIRTFVPKNERLHYLRMMGLEVLGEKKKEGVILTNENAASPEQPGDEDAKQTAQDPCVPDSVPGCDAAAAEPSR

Source: paper PMC11602552 (The Journal of Experimental Medicine, 2024)
